Data on four molecules can be found in US20260224723A1 (DUALITY BIOLOGICS SUZHOU, published 2026).

The target in assay [1] is T1, Human B7-H3(4Ig), His Tag (human, UniProt Q5ZPR3 29-461).
T1 construct: also called recombinant human B7H3 antigen; human B7-H3 protein; not shown: His tag
T1 sequence (looked up): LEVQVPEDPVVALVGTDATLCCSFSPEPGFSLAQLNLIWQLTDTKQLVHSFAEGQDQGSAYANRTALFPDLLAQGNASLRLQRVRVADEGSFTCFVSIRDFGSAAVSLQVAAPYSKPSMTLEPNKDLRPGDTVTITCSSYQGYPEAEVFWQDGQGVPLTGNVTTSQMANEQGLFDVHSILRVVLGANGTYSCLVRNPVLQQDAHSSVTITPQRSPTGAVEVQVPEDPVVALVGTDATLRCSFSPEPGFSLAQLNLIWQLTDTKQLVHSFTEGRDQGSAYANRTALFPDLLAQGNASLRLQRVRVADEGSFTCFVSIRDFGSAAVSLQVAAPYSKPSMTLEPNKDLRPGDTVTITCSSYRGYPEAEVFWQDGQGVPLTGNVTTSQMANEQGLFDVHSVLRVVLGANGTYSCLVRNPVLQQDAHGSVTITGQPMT
The experiment in a line: ELISA, plate coated with 2 µg/mL recombinant human B7-H3 (4Ig), serially diluted antibody, HRP anti-human secondary antibody, OD450. Here is the method: A 96-well ELISA plate was coated with 2 μg/mL recombinant human B7H3 antigen (see the table above) at 30 μL/well and kept at 4° C. overnight. The following day, the well plate was washed 3 times with PBST and then blocked with 5% skim milk for 2 h. […] The plate was then washed 3 times with PBST, and an HRP-labeled anti-human secondary antibody diluted in a 1:5000 ratio was then added at 100 μL/well and incubated for 1 h. After the incubation was complete, the plate was washed six times with PBST, and TMB (SurModics, TMBS-1000-01) was added for color development. Based on the results of the color development, the reaction was stopped by adding 2M HCl, and the plate was read by a microplate reader (Molecular Devices, SpecterMax 190) at OD450.

Assay [2] deals with T2, Human BTNL2 protein, His Tag (human, UniProt Q9UIR0-1 24-455, limits assumed).
T2 construct: Bought protein; also called AtaGenix ATMP02212HU; not shown: His tag
T2 sequence (looked up): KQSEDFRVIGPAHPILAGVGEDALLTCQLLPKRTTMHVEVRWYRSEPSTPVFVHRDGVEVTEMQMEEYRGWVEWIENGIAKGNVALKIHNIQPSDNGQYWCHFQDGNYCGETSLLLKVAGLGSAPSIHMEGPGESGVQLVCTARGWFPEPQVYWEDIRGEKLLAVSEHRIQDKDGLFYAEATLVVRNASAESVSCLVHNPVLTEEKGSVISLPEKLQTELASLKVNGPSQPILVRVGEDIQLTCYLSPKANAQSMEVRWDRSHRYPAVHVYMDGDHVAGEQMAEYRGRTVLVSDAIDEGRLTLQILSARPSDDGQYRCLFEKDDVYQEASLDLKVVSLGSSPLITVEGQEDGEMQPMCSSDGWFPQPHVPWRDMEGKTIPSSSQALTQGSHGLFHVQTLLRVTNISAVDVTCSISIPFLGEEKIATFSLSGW
The experiment in a line: ELISA, protein immobilized on plate, serially diluted antibody. The method, then: (§1) Human PD-L1 protein (see the table above), human B7-H2 protein, human B7-H3 protein, human B7-H4 protein, human B7-H5 protein, human B7-H6 protein, human B7-1 protein, human B7-2 protein, human PD-L2 protein, human B7-H7 protein, and human BTNL2 protein were separately immobilized on 96-well plates by incubation at 4° C. overnight. The 96-well plates were then blocked by incubation with 1% BSA in PBS at 37° C. for 1 h. After blocking, the 96-well plates were washed 3 times with PBST (PBS containing 0.05% Tween 20). […] After incubation, the 96-well plates were washed 3 times with PBST, incubated with a secondary antibody (see the table above) in binding buffer at 37° C. for 1 h, and then washed again. TMB was added for color development, and the reaction was stopped by 1 M H₂SO₄.

For assay [3], the target named is T3, Cynomolgus monkey full-length B7H3 on transfected FlpinCHO cells (cynomolgus monkey).
T3 construct: whole, on cells; also called W3XX088-FlpinCHO.cProl.pool
The experiment in a line: FACS on cynomolgus monkey B7H3-transfected FlpinCHO cell pool. The method, then:
FACS was used to detect the binding of antibodies to cynomolgus monkey B7H3. FlpinCHO cells were transfected with cynomolgus monkey B7H3 (W3XX088-FlpinCHO.cProl.pool) (1×10⁵ cells/well), and the transfected cells were incubated with various concentrations of antibodies (3.16-fold serially diluted with 1×DPBS/1% BSA from 50 nM to 0.0005 nM) in a volume of 100 μL/well in a refrigerator set to 4° C. for 1 h. Anti-human B7H3 reference antibody enoblituzumab (MacroGeneics) was used as a positive control. Human IgG1 isotype antibody was used as a negative control. After washing the cells with 1×DPBS/1% BSA, Alexa 647 goat anti-human antibody (diluted in a 1:500 ratio in 1×DPBS/1% BSA) was added. The cells were incubated in a refrigerator set to 4° C. for 0.5 h in the dark. The mean fluorescence intensity (MFI) of the cells was measured by a flow cytometry and analyzed by FlowJo. EC₅₀ values were calculated by four-parameter non-linear regression analysis using GraphPad Prism 7 software.

For assay [4], the target named is T2, Human BTNL2 protein, His Tag. The experiment in a line: ELISA, protein immobilized on plate, serially diluted antibody-drug conjugate. Here is the method: as §1

B1: W301088-1.145.16-z3-p1-uIgG1KV320 (antibody, V domains shown)
VH: QVQLQESGPGLVKPSQTLSLTCTVTDYSITGDYAWNWIRQHPGKGLEWIGYISYSGSTSYNPSLQSRVTISRDTSKNQFSLKLSSVTAADTAVYFCARSLGRRWYFVVWGQGTTVTVSS
VL: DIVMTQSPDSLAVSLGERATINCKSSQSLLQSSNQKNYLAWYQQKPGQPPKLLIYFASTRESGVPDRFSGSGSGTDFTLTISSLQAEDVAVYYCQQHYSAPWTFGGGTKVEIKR
notes: Humanized, PTM-removed (VL N027dQ) antibody; human IgG1 LALA, kappa; also called WBP301088; W301088-z3-p1
In the case of B1, in assay [1], the “EC50 (read off the curve)” value is around 0.1 µg/mL. Moreover, the binding result in assay [2] is given as “no binding”. The same molecule showed a 50% effective concentration (EC50) in assay [3] of 4.68 nM.

B2: Antibody-drug conjugate WBP301088-X2 (DAR6) (antibody, human IgG1, kappa, L234A L235A, V domains shown)
VH: B1 VH
VL: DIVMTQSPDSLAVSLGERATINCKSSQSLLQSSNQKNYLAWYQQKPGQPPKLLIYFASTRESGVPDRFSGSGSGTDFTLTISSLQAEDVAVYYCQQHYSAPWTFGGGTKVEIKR
modifications: linker-payload X2 conjugated after TCEP reduction; drug loading (DAR) 5.68 per antibody; sites not stated
Take B2: the binding result in assay [4] was “no binding”.

B3: Enoblituzumab (MacroGenics) (antibody, V domains shown)
VH: EVQLVESGGGLVQPGGSLRLSCAASGFTFSSFGMHWVRQAPGKGLEWVAYISSDSSAIYYADTVKGRFTISRDNAKNSLYLQMNSLRDEDTAVYYCGRGRENIYYGSRLDYWGQGTTVTVSS
VL: DIQLTQSPSFLSASVGDRVTITCKASQNVDTNVAWYQQKPGKAPKALIYSASYRYSGVPSRFSGSGSGTDFTLTISSLQPEDFATYYCQQYNNYPFTFGQGTKLEIKR
The molecule B3 gave a concentration giving a half-maximal response (EC50) in assay [3] of 9.58 nM.

B4: W301088-1.145.16-xIgG1KV320 (antibody, V domains shown)
VH: DVQLQESGPGLVKPSQSLSLTCTVTDYSITGDYAWNWIRQFPGNKLEWMGYISYSGSTSYNPSLQSRISITRDTSKNQFFLQLNSVTSEDTATYFCARSLGRRWYFVVWGAGTTVTVSA
VL: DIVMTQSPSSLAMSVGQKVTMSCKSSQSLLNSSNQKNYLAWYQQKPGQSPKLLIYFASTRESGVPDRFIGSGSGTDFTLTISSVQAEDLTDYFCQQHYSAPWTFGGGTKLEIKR
In turn, B4 yielded an EC50 in assay [3] of 5.25 nM.
